The values that follow come from ChEMBL document CHEMBL5678797, “AZD7762, a novel checkpoint kinase inhibitor, drives checkpoint abrogation and potentiates DNA-targeted therapies” (Mol Cancer Ther, 2008).

Substrate in this data set: NC(=O)Nc1cc(-c2cccc(F)c2)sc1C(=O)N[C@H]1CCCNC1
As to conditions: Homo sapiens; Insect cell; time 20.0 min.

B1: Serine/threonine-protein kinase Chk1 (Homo sapiens), O14757 (protein)
chain: MAVPFVEDWDLVQTLGEGAYGEVQLAVNRVTEEAVAVKIVDMKRAVDCPENIKKEICINKMLNHENVVKFYGHRREGNIQYLFLEYCSGGELFDRIEPDIGMPEPDAQRFFHQLMAGVVYLHGIGITHRDIKPENLLLDERDNLKISDFGLATVFRYNNRERLLNKMCGTLPYVAPELLKRREFHAEPVDVWSCGIVLTAMLAGELPWDQPSDSCQEYSDWKEKKTYLNPWKKIDSAPLALLHKILVENPSARITIPDIKKDRWYNKPLKKGAKRPRVTSGGVSESPSGFSKHIQSNLDFSPVNSASSEENVKYSSSQPEPRTGLSLWDTSPSYIDKLVQGISFSQPTCPDHMLLNSQLLGTPGSSQNPWQRLVKRMTRFFTKLDADKSYQCLKETCEKLGYQWKKSCMNQVTISTTDRRNNKLIFKVNLLEMDDKILVDFRLSKGDGLEFKRHFLKIKGKLIDIVSSQKIWLPAT
In the case of B1, the Km was 80 µM.
